{"source": "patent US7906477", "key": {"[1]": {"tested_on": "T1, ac-GKAFRR-L12ADT (SEQ ID NO:41)", "T1 sequence": "GKAFRRX", "conditions": "for Relative hydrolysis rate: scale: relative"}, "Abz-GKAFRRLY′": {"tested_on": "T2, Abz-GKAFRRLY′", "T2 sequence": "GKAFRRLY", "conditions": "for Relative hydrolysis rate: scale: relative"}, "[2]": {"tested_on": "T3, Y′GKAFRR-Dap-FK′ (SEQ ID NO:38)", "T3 sequence": "XGKAFRRXFX"}, "[3]": {"tested_on": "T4, Y′GKAMRQ-Dap-FK′ (SEQ ID NO:39)", "T4 sequence": "XGKAMRQXFX"}, "[4]": {"tested_on": "T5, Y′GSKGPFKL-Dap-K′ (SEQ ID NO:46)", "T5 sequence": "XGSKGPFKLXX"}, "[5]": {"tested_on": "soluble non-arginine containing peptides"}, "[6]": {"tested_on": "T6, Y′GKAFRLK′-PEGA (SEQ ID NO:52)", "T6 sequence": "XGKAFRLX"}, "GKAFR-AMC": {"tested_on": "T7, GKAFR-AMC", "T7 sequence": "GKAFR"}, "[7]": {"tested_on": "T8, Y′GKAKPR-Dap-FK′ (SEQ ID NO:37)", "T8 sequence": "XGKAKPRXFX"}, "[8]": {"tested_on": "T9, Y′GSKGHFKL-Dap-K′ (SEQ ID NO:45)", "T9 sequence": "XGSKGHFKLXX"}, "[9]": {"tested_on": "T10, Y′GKARAF-Dap-FK′ (SEQ ID NO:36)", "T10 sequence": "XGKARAFXFX"}, "[10]": {"tested_on": "T11, Y′GKAFRRLGK′ (SEQ ID NO:21)", "T11 sequence": "XGKAFRRLGX"}, "[11]": {"tested_on": "T12, ac-GKAFRRLG (SEQ ID NO:43)", "T12 sequence": "GKAFRRLG"}, "[12]": {"tested_on": "T13, Y′GSKGHFKL-Dap-F-K′ (SEQ ID NO:40)", "T13 sequence": "XGSKGHFKLXFX"}, "[13]": {"tested_on": "T14, Y′GSKGHFHL-Dap-K′ (SEQ ID NO:47)", "T14 sequence": "XGSKGHFHLXX"}}}
{"substance": "Cathepsin B", "values": [{"measurement": "hydrolysis by protease", "setting": "[1]", "value": "No appreciable hydrolysis of either substrate was observed following incubation with Cathepsin D or Cathepsin B"}, {"measurement": "Relative hydrolysis rate", "setting": "[1]", "value": 1}, {"measurement": "hydrolysis by protease", "setting": "Abz-GKAFRRLY′", "value": "No appreciable hydrolysis of either substrate was observed following incubation with Cathepsin D or Cathepsin B"}, {"measurement": "Relative hydrolysis rate", "setting": "Abz-GKAFRRLY′", "value": 1}]}
{"substance": "Cathepsin D", "values": [{"measurement": "hydrolysis by protease", "setting": "[1]", "value": "No appreciable hydrolysis of either substrate was observed following incubation with Cathepsin D or Cathepsin B"}, {"measurement": "Relative hydrolysis rate", "setting": "[1]", "value": 1}, {"measurement": "hydrolysis by protease", "setting": "Abz-GKAFRRLY′", "value": "No appreciable hydrolysis of either substrate was observed following incubation with Cathepsin D or Cathepsin B"}, {"measurement": "Relative hydrolysis rate", "setting": "Abz-GKAFRRLY′", "value": 1}]}
{"substance": "Plasmin", "values": [{"measurement": "rate of hydrolysis relative to hK2", "setting": "Abz-GKAFRRLY′", "value": "Plasmin had a more than 10-fold slower rate of hydrolysis of the peptide substrate than hK2"}, {"measurement": "Relative hydrolysis rate", "setting": "Abz-GKAFRRLY′", "value": 36}]}
{"substance": "Urokinase", "values": [{"measurement": "Relative hydrolysis rate", "setting": "[1]", "value": 1}, {"measurement": "hydrolysis by protease", "setting": "Abz-GKAFRRLY′", "value": "Urokinase showed low activity on the fluorescence quenched peptide substrate"}, {"measurement": "Relative hydrolysis rate", "setting": "Abz-GKAFRRLY′", "value": 17}]}
{"substance": "human glandular kallikrein 2 (hK2), enzymatically active", "values": [{"measurement": "hydrolysis by hK2 (4 µg/ml), HPLC", "setting": "[1]", "value": "the hK2 prodrug is rapidly cleaved by hK2"}, {"measurement": "percent of starting prodrug hydrolyzed after 1 hour (4 µg/ml hK2, HPLC)", "setting": "[1]", "value": "after 1 hour, more than 80% of the starting prodrug was hydrolyzed"}, {"measurement": "time to 50% hydrolysis (4 µg/ml hK2, HPLC)", "setting": "[1]", "value": "In 25 min, 50% was hydrolyzed"}, {"measurement": "Relative hydrolysis rate", "setting": "[1]", "value": 125}, {"measurement": "Michaelis-Menten constant (Km)", "setting": "[2]", "value": "The Michaelis-Menten constant (Km) was determined at 26.5 µM"}, {"measurement": "hK2 mediated hydrolysis (fluorescence, 250 µM substrate, 8 µg/ml hK2)", "setting": "[2]", "value": "by far exceeded all other substrates"}, {"measurement": "kcat", "setting": "[2]", "value": "the kcat at 1.09 sec^-1"}, {"measurement": "kcat/Km ratio", "setting": "[2]", "value": "the kcat/Km ratio was 41,132 sec^-1 M^-1"}, {"measurement": "on-bead digestion with hK2 (fluorescence)", "setting": "[2]", "value": "reproduced fluorescence when these peptides were digested on-bead with hK2"}, {"measurement": "time to maximum digestion (70-75%)", "setting": "[2]", "value": "a value that was reached with Y′GKAFRR-Dap-F-K′ (SEQ ID NO:38) in less than 15 minutes"}, {"measurement": "time to more than 50% digestion (500 µM peptide, 4 µg/ml hK2)", "setting": "[2]", "value": "In less than five minutes, more than 50% of the peptide was digested"}, {"measurement": "on-bead digestion with hK2 (fluorescence)", "setting": "[3]", "value": "reproduced fluorescence when these peptides were digested on-bead with hK2"}, {"measurement": "time to digestion of the same amount (more than 50%) of peptide", "setting": "[3]", "value": "For the other peptides, digestion of the same amount of peptide took 19-29 minutes"}, {"measurement": "Relative hydrolysis rate", "setting": "Abz-GKAFRRLY′", "value": 353}, {"measurement": "digestion by hK2 in solution (fluorescence-quenched peptide)", "setting": "[4]", "value": "none of these three arginine free peptides were digested by hK2, even after prolonged incubation"}, {"measurement": "hydrolysis by hK2 in solution", "setting": "[5]", "value": "the soluble non-arginine containing peptides were not hydrolyzed by hK2"}, {"measurement": "incubation time until fluorescent beads (on-bead digestion, 4 µg/ml hK2)", "setting": "[6]", "value": "digested to yield fluorescent beads after 10-12 hours of incubation with 4 µg/ml hK2"}, {"measurement": "Km", "setting": "GKAFR-AMC", "value": "Km 146 µM"}, {"measurement": "kcat", "setting": "GKAFR-AMC", "value": "kcat 0.13 sec^-1"}, {"measurement": "kcat/Km", "setting": "GKAFR-AMC", "value": "kcat/Km 895 sec^-1 M^-1"}, {"measurement": "on-bead digestion with hK2 (fluorescence)", "setting": "[7]", "value": "reproduced fluorescence when these peptides were digested on-bead with hK2"}, {"measurement": "time to digestion of the same amount (more than 50%) of peptide", "setting": "[7]", "value": "For the other peptides, digestion of the same amount of peptide took 19-29 minutes"}, {"measurement": "digestion by hK2 in solution (fluorescence-quenched peptide)", "setting": "[8]", "value": "none of these three arginine free peptides were digested by hK2, even after prolonged incubation"}, {"measurement": "on-bead digestion with hK2 (fluorescence)", "setting": "[9]", "value": "reproduced fluorescence when these peptides were digested on-bead with hK2"}, {"measurement": "time to digestion of the same amount (more than 50%) of peptide", "setting": "[9]", "value": "For the other peptides, digestion of the same amount of peptide took 19-29 minutes"}, {"measurement": "hK2 hydrolysis rate (fluorescence)", "setting": "[10]", "value": "Substitution of Dap-F with Leu-Gly resulted in only a modest decrease in hydrolysis rate"}, {"measurement": "hydrolysis by hK2 (HPLC)", "setting": "[11]", "value": "this peptide was rapidly hydrolyzed by hK2"}, {"measurement": "hK2 mediated hydrolysis (fluorescence, 250 µM substrate, 8 µg/ml hK2)", "setting": "[12]", "value": "did not show any hydrolysis"}, {"measurement": "digestion by hK2 in solution (fluorescence-quenched peptide)", "setting": "[13]", "value": "none of these three arginine free peptides were digested by hK2, even after prolonged incubation"}]}
